The values below come from patent publication US20240309116A1 (ZHEJIANG SHIMAI PHARMACEUTICAL, published 2024).

In assay [1] the target is T1, recombinant human ROR1 (full-length extracellular domain) (human, UniProt Q01973 30-406).
T1 construct: extracellular domain; Bought protein; also called human ROR1 protein; full extracellular domain
The assay can be described thus: ELISA, ROR1 coated on the plate, Fab detected with HRP anti-FLAG antibody. As to the method: The hexahistidine-tagged Fabs 2H3 and 3A3 were expressed in E. coli strain HB2151 and purified from the soluble fraction of periplasm by using the Ni-NTA resin. Then ELISA was performed by using standard protocols to measure binding affinity to recombinant human ROR1 (full-length extracellular domain). Briefly, the recombinant human ROR1 (ACROBiosystems) was coated on Corning EIA/RIA high-binding 96-well plates (Corning Inc.) at 50 ng per well overnight at 4° C. and blocked with 3% nonfat milk in PBS (pH7.4). Fivefold serially diluted antibodies were added and incubated at room temperature for 2 h. The plates were washed with PBS containing 0.05% Tween 20. Bound antibodies were detected by HRP-conjugated anti-FLAG tag antibody (Sino Biological). The assay was developed at room temperature with TMB substrate (Solarbio) and OD value was measured at 450 nm with a microplate reader.
Background: An ELISA detects its analyte on a solid surface through an enzyme-linked reagent.

Assay [2] deals with T2, human/Cynomolgus/Rhesus macaque ROR1 (308-395, Kringle domain) protein (human/Cynomolgus/Rhesus macaque, UniProt Q01973 308-395).
T2 construct: range 308-395; Bought protein; also called kringle domain of ROR1
The assay can be described thus: ELISA, antigen coated on the plate, biotinylated antibody detected with HRP streptavidin. As to the method: (§1) ELISA was performed according to standard protocols, to determine binding affinity of anti-ROR1 mAB 2H3 and 3A3 to full extracellular domain and individual extracellular Ig-like domain, frizzled domain, and kringle domain of human ROR1. Briefly, recombinant human ROR1 (AcroBiosystems) were coated on Corning EIA/RIA high-binding 96-well plates (Corning Inc.) at 50 ng per well overnight at 4° C. and blocked with 3% nonfat milk in PBS (pH7.4). Fivefold serially diluted biotinylated antibodies were added and incubated at room temperature for 2 h. The plates were washed with PBS containing 0.05% Tween 20. Bound antibodies were detected by HRP-conjugated streptavidin (Sino Biological). The assay was developed at room temperature with TMB substrate (Solarbio) and monitored at 450 nm with a microplate reader. The half-maximal binding (EC₅₀) was calculated by fitting the data to the Langmuir adsorption isotherm.

Assay [3] deals with T1, recombinant human ROR1 (full-length …). The assay is described as above. The procedure: as §1
For assay [4], the target named is T3, human ROR1 (39-151, Ig-like domain) protein (human, UniProt Q01973 39-151).
T3 construct: range 39-151; Bought protein; also called Ig-like domain of ROR1
Described as above. The procedure:
as §1

T1 sequence (Q01973 30-406): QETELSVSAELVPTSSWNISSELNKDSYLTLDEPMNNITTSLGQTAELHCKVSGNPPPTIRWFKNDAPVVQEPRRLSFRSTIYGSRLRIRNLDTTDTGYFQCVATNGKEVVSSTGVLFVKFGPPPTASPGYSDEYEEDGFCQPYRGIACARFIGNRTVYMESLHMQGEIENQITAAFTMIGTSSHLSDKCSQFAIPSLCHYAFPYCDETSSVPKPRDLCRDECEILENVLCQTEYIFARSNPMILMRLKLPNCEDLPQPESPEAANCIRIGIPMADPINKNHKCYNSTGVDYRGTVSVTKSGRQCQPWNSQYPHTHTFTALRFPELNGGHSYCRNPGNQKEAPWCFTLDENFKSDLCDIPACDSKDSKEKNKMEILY
T2 sequence (Q01973 308-395 limits assumed, form in doubt): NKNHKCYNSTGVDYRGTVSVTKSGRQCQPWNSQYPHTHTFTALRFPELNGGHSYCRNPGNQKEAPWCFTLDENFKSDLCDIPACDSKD
T3 sequence (Q01973 39-151 limits assumed, form in doubt): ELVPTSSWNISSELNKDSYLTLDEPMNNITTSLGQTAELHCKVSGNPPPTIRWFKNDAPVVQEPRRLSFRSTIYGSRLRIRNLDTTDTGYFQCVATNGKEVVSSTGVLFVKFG

B1: anti-ROR1 2H3 Fab (Fab, V domains shown)
VH: QVQLVQSGAEVKKTGSSVKVSCKASGYTFTYRYLHWVRQAPGQALEWMGWITPFNGNTNYAQKFQDRVTITRDRSMSTAYMELSSLRSEDTAMYYCARSGPRGDYVLDYWGQGTLVTVSS
VL: EIVLTQSPATLSLSPGERATLSCRASQSVSSYLAWYQQKPGQAPRLLIYDASNRATGIPARFSGSGSGTDFTLTISSLEPEDFAVYYCQQRSNWPLTFGGGTKVEIK
notes: Human Fab from a phage library, kappa light chain, hexahistidine-tagged, expressed in E. coli HB2151; also called Fab clone 2H3
One may read the EC50 as the concentration at which the effect is half-maximal. Consider B1, for which, in assay [1], the EC50 is about 16 nM.

B2: anti-ROR1 monoclonal antibody 2H3 (antibody, V domains shown)
VH: QVQLVQSGAEVKKTGSSVKVSCKASGYTFTYRYLHWVRQAPGQALEWMGWITPFNGNTNYAQKFQDRVTITRDRSMSTAYMELSSLRSEDTAMYYCARSGPRGDYVLDYWGQGTLVTVSS
VL: EIVLTQSPATLSLSPGERATLSCRASQSVSSYLAWYQQKPGQAPRLLIYDASNRATGIPARFSGSGSGTDFTLTISSLEPEDFAVYYCQQRSNWPLTFGGGTKVEIKR
notes: Intact human IgG1 kappa (Fd of the Fab fused to human IgG1 Fc), about 150 kDa non-reduced; also called 2H3 mAb; 2H3 Mab
Regarding B2, the results for the EC50 in assay [2] and in assay [3] were 1.2 nM and 0.2 nM, respectively.

B3: anti-ROR1 3A3 Fab (Fab, V domains shown)
VH: EVQLVESGGGVVQPGRSLRLSCAASGFTFSSYGMHWVRQAPGKGLEWVAVISYDGSNKYYADSVKGRFTISRDNSKNTLYLQMNSLRAEDTAVYYCAKDLDYSLWFDPWGQGTLVTVSS
VL: DVVMTQSPLSLPVTPGEPASISCRSSQSLLQSNGYNYVEWFLQKPGQSPQLLIYLGSYRASGVPDRFSGSGSGTDFTLKISRVEAEDVGVYYCMQGTHWPLFTFGPGTKVDIK
notes: Human Fab from a phage library, kappa light chain, hexahistidine-tagged, expressed in E. coli HB2151; detected with an anti-FLAG antibody; also called Fab clone 3A3
For B3, in assay [1], the EC50 is about 36 nM.

B4: anti-ROR1 monoclonal antibody 3A3 (antibody, V domains shown)
VH: EVQLVESGGGVVQPGRSLRLSCAASGFTFSSYGMHWVRQAPGKGLEWVAVISYDGSNKYYADSVKGRFTISRDNSKNTLYLQMNSLRAEDTAVYYCAKDLDYSLWFDPWGQGTLVTVSS
VL: DVVMTQSPLSLPVTPGEPASISCRSSQSLLQSNGYNYVEWFLQKPGQSPQLLIYLGSYRASGVPDRFSGSGSGTDFTLKISRVEAEDVGVYYCMQGTHWPLFTFGPGTKVDIKR
notes: Intact human IgG1 kappa (Fd of the Fab fused to human IgG1 Fc), about 150 kDa non-reduced; also called 3A3 mAb; 3A3 Mab
With B4, the EC50 in assay [4] turned out to be 3.1 nM; in assay [3] it was 0.18 nM.
